From patent US10556936B2, “Immunogenic proteins and fragments thereof from allergenic mites” (ALK-ABELLÓ A/S, priority 2016, dated 2020)

B1: Derp1: major house dust mite allergen, group 1, Dermatophagoides pteronyssinus; control (protein, UniProt P08176 99-320, looked up)
Peptidase 1: TNACSINGNAPAEIDLRQMRTVTPIRMQGGCGSCWAFSGVAATESAYLAYRNQSLDLAEQELVDCASQHGCHGDTIPRGIEYIQHNGVVQESYYRYVAREQSCRRPNAQRFGISNYCQIYPPNVNKIREALAQTHSAIAVIIGIKDLDAFRHYDGRTIIQRDNGYQPNYHAVNIVGYSNAQGVDYWIVRNSWDTNWGDNGYGYFAANIDLMMIEEYPYVVIL
B2: Derp2: major house dust mite allergen, group 2, Dermatophagoides pteronyssinus; control (protein, UniProt P49278 18-146, looked up)
Mite group 2 allergen Der p 2: DQVDVKDCANHEIKKVLVPGCHGSEPCIIHRGKPFQLEAVFEANQNTKTAKIEIKASIDGLEVDVPGIDPNACHYMKCPLVKGQQYDIKYTWNVPKIAPKSENVVVTVKVMGDDGVLACAIATHAKIRD
B3: Derf2: major house dust mite allergen, group 2, Dermatophagoides farinae; control (protein, UniProt Q00855 18-146, looked up)
Mite group 2 allergen Der f 2: DQVDVKDCANNEIKKVMVDGCHGSDPCIIHRGKPFTLEALFDANQNTKTAKIEIKASLDGLEIDVPGIDTNACHFMKCPLVKGQQYDIKYTWNVPKIAPKSENVVVTVKLIGDNGVLACAIATHGKIRD
B4: A001: house dust mite protein; SEQ ID NO: 13 (Der f), 14 (Der p); recombinant test protein (protein)
chain: KKSPDCDIERPIRECLKDGLLRYSSGQKINQFPDTIQDLNRACEELKKSETCARTFIDTCTESSYEKRSLDSLLDGIQRVMKRLCRSQTKKEKLLENVGCANSVVQDTKQCLKNYRMLVFAANKLDNKNKIMRILCCKSRKVAPCIGEAMKAKGTAVCSAKNIDYFKDVHQNIKQEMTAVVCSDFERDQCENVDVPNISESEYKDQNIFNPLRDLYKKVILG

Key:
Format in all cases: cell-based, human
[1] = test system: PBMC cells obtained from mite allergic patients and non-allergics; test: Ex vivo stimulation of PBMC: cytokine production (IFN-gamma, IL-9, IL-10, IL-17, IL-31)
Procedure, shortened: (§1)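 Freshly isolated PBMC (5×10^6/ml) from mite-allergic patients or non-allergics cultured 5 days with test protein up to 10 ug/ml; IFN-gamma, IL-9, IL-10, IL-17, IL-31 in supernatants by multiplex immunoassay. T cell lines, raised 3 weeks on HDM extract, tested at 0.5 or 2 ug/ml protein in 72 h proliferation assay.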

[2] = test system: basophils in whole blood from HDM allergic donors; test: Basophil Activation Test (BAT); settings: blood from HDM allergic individuals (n=14)
Procedure, shortened: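 Basophil activation was read by flow cytometry as increased surface activation markers. The stimulus was a 1 h exposure of blood from 14 HDM-allergic donors to test proteins or major mite allergens at graded concentrations (e.g. 1–1000 ng/ml).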

[3] = test system: T cell lines obtained from HDM allergic individuals and non-allergics; test: In vitro T cell proliferation test in T cell lines (Example 3); settings: 0.5 or 2 ug/ml, 72 h; for % responders of in-vitro T cell proliferation test, Allergic: T cell lines from HDM allergic individuals (n=30); for % responders of in-vitro T cell proliferation test, Non-allergics: T cell lines from non-allergics (n=8)
Procedure, shortened: as §1

Molecule | % HDM allergic individuals with cytokine production in ex-vivo T cell assay IL-5 [1] [%] | % HDM allergic individuals with cytokine production in ex-vivo T cell assay IL-9 [1] [%] | % HDM allergic individuals with cytokine production in ex-vivo T cell assay IL-10 [1] [%] | % HDM allergic individuals with cytokine production in ex-vivo T cell assay IL-13 [1] [%] | % HDM allergic individuals with cytokine production in ex-vivo T cell assay IL-17 [1] [%] | % HDM allergic individuals with cytokine production in ex-vivo T cell assay IL-31 [1] [%] | % HDM allergic individuals with cytokine production in ex-vivo T cell assay INF-g [1] [%] | % non-allergic individuals with cytokine production in ex-vivo T cell assay IL-5 [1] [%] | % non-allergic individuals with cytokine production in ex-vivo T cell assay IL-9 [1] [%] | % non-allergic individuals with cytokine production in ex-vivo T cell assay IL-10 [1] [%] | % non-allergic individuals with cytokine production in ex-vivo T cell assay IL-13 [1] [%] | % non-allergic individuals with cytokine production in ex-vivo T cell assay IL-17 [1] [%] | % non-allergic individuals with cytokine production in ex-vivo T cell assay IL-31 [1] [%] | % non-allergic individuals with cytokine production in ex-vivo T cell assay INF-g [1] [%] | # of individuals of 14 with positive BAT test ([2]; 1 ng/ml) | # of individuals of 14 with positive BAT test ([2]; 10 ng/ml) | # of individuals of 14 with positive BAT test ([2]; 100 ng/ml) | # of individuals of 14 with positive BAT test ([2]; 1000 ng/ml) | % responders of in-vitro T cell proliferation test, Allergic [3] [%] | % responders of in-vitro T cell proliferation test, Non-allergics [3] [%]
B1 | 50 | 6 | 50 | 50 | 6 | 0 | 0 | 0 | 0 | 17 | 0 | 17 | 0 | 0 | 7 | 10 | 10 | 10 | 73 | 13
B2 | 56 | 31 | 56 | 50 | 0 | 6 | 0 | 0 | 0 | 17 | 0 | 0 | 0 | 0 | 13 | 13 | 13 | 13 | 57 | 0
B3 | 63 | 50 | 81 | 69 | 13 | 6 | 6 | 0 | 0 | 33 | 0 | 67 | 0 | 17 | 13 | 13 | 13 | 13 | 67 | 14
B4 | 6 | 0 | 75 | 6 | 25 | 0 | 6 | 0 | 0 | 100 | 0 | 50 | 0 | 0 | 0 | 0 | 1 | 2 | 17 | 0
